Target: RSV post-fusion F (Flys-GCN without StrepII-tag) (Respiratory Syncytial Virus)
Assay: cryo-EM structure

“RSV post-fusion F (Flys-GCN without StrepII-tag)” showed a stoichiometry N of 3.

— paper doi:10.1101/2025.01.04.631317
